Results taken from US20140228277A1 (Genentech, published 2014).
Starred links: 1 amine or outer side, 2 acyl side, 3 side chain; linkers in the order of their positions; H or OH if unused. Positions of bridges follow the written chain, without caps; N, C: chain ends. NH(CH2)3(OCH2CH2)2O(CH2)3NH = C(CN[*:1])COCCOCCOCCCN[*:2]

Assays:
[1] = biological target: T1, human BACE1 ECD (22-457) L91A, His8 (human, UniProt P56817 22-457); experiment: ELISA; biotinylated BACE020 on plate-coated BACE1 ECD mutant; ratio to WT
T1 construct: also called L91A (30)
Experimental: (§1) Maxisorp microtiter plates (Nalge Nunc International, Rochester, N.Y.) were coated overnight at 4° C. with 2 μg/ml BACE1 mutant in 50 mM carbonate, pH 9.6. The coated wells were washed with buffer (PBS, 0.05% Polysorbate 20) and blocked with assay buffer (PBS, pH 7.4, 0.5% BSA, 0.05% Tween 20, 15 ppm Proclin) for 1 h at room temperature with gentle shaking. […] After washing, the amount of peptide bound to the plate was detected by the addition of Streptavidin-Horseradish Peroxidase Conjugate (GE Healthcare, Piscataway, N.J.) followed by the addition of TMB/H₂O₂ substrate (KPL, Gaithersburg, Md.). The reaction was quenched with 1 M phosphoric acid and the A₄₅₀ measured on a Molecular Devices SpectraMax Plus384 microplate reader. Concentrations to give half maximal effective concentration (EC₅₀) were determined using a 4-parameter non-linear regression curve-fitting program with Kaleidagraph (Synergy Software, Reading, Pa.). […] Concentrations to give half maximal inhibition concentration (IC₅₀) were determined using a 4-parameter non-linear regression curve-fitting program with Kaleidagraph.
(§2) The fold decrease in binding affinity was determined as the relative EC₅₀ values of EC₅₀ (mut)/EC₅₀ (WT), which are listed in Table 3.

[2] = biological target: T2, human BACE1 ECD (22-457) R296A, His8 (human, UniProt P56817 22-457); experiment: as above
T2 construct: also called R296A (235)
Experimental: as §1, §2

[3] = biological target: T3, human BACE1 ECD (22-457) Y132A, His8 (human, UniProt P56817 22-457); experiment: as above
T3 construct: also called Y132A (71)
Experimental: as §1, §2

[4] = biological target: T4, human BACE1 ECD (22-457) T390A, His8 (human, UniProt P56817 22-457); experiment: as above
T4 construct: also called T390A (329)
Experimental: as §1, §2

[5] = biological target: T5, human BACE1 ECD (22-457) D289A, His8 (human, UniProt P56817 22-457); experiment: as above
T5 construct: also called D289A (228)
Experimental: as §1, §2

[6] = biological target: T6, human BACE1 ECD (22-457) Q134A, His8 (human, UniProt P56817 22-457); experiment: as above
T6 construct: also called Q134A (73)
Experimental: as §1, §2

[7] = biological target: T7, human BACE1 ECD (22-457) Q73A, His8 (human, UniProt P56817 22-457); experiment: as above
T7 construct: also called Q73A (12)
Experimental: as §1, §2

[8] = biological target: T8, human BACE1 ECD (22-457) K285A, His8 (human, UniProt P56817 22-457); experiment: as above
T8 construct: also called K285A (224)
Experimental: as §1, §2

[9] = biological target: T9, human BACE1 ECD (22-457) I171A, His8 (human, UniProt P56817 22-457); experiment: as above
T9 construct: also called I171A (110)
Experimental: as §1, §2

[10] = biological target: T10, human BACE1 ECD (22-457) T133A, His8 (human, UniProt P56817 22-457); experiment: as above
T10 construct: also called T133A (72)
Experimental: as §1, §2

[11] = biological target: T11, human BACE1 ECD (22-457) N294A, His8 (human, UniProt P56817 22-457); experiment: as above
T11 construct: also called N294A (233)
Experimental: as §1, §2

[12] = biological target: T12, human BACE1 ECD (22-457) G291A, His8 (human, UniProt P56817 22-457); experiment: as above
T12 construct: also called G291A (230)
Experimental: as §1, §2

[13] = biological target: T13, human BACE1 ECD (22-457) I179A, His8 (human, UniProt P56817 22-457); experiment: as above
T13 construct: also called I179A (118)
Experimental: as §1, §2

[14] = biological target: T14, human BACE1 ECD (22-457) K382A, His8 (human, UniProt P56817 22-457); experiment: as above
T14 construct: also called K382A (321)
Experimental: as §1, §2

[15] = biological target: T15, human BACE1 ECD (22-457) G72A, His8 (human, UniProt P56817 22-457); experiment: as above
T15 construct: also called G72A (11)
Experimental: as §1, §2

[16] = biological target: T16, human BACE1 ECD (22-457) G74A, His8 (human, UniProt P56817 22-457); experiment: as above
T16 construct: also called G74A (13)
Experimental: as §1, §2

[17] = biological target: T17, human BACE1 ECD (22-457) T293A, His8 (human, UniProt P56817 22-457); experiment: as above
T17 construct: also called T293A (232)
Experimental: as §1, §2

[18] = biological target: T18, human BACE1 extracellular domain (residues 22-457), wild type, C-terminal His8 (human, UniProt P56817 22-457); experiment: ELISA; biotinylated BACE020 on plate-coated BACE1 ECD (WT, the reference)
T18 construct: Expressed in CHO cells with the BACE1 signal peptide; also called WT; BACE1 ECD
Experimental: as §1, §2

T3 sequence (P56817 other isoform, or with tags, fused parts or gaps Y132A Y132A): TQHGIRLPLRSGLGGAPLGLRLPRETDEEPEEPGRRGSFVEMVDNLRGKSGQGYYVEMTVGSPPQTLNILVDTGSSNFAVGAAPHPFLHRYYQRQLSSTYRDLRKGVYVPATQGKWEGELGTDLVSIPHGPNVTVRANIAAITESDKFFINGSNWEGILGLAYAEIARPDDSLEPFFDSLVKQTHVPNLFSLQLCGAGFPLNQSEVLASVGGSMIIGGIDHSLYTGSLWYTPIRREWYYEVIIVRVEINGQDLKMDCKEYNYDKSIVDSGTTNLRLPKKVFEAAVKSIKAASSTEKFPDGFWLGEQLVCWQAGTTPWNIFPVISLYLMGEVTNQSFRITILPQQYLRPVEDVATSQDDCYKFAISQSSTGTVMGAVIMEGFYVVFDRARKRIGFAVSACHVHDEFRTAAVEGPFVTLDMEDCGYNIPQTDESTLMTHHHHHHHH
T17 sequence (P56817 other isoform, or with tags, fused parts or gaps T293A T293A): as the sequence (P56817 other isoform, or with tags, fused parts or gaps Y132A Y132A) above, with A111Y, T272A counted along it
T18 sequence (P56817 other isoform, or with tags, fused parts or gaps): as the sequence (P56817 other isoform, or with tags, fused parts or gaps Y132A Y132A) above, with A111Y counted along it
T2 sequence (P56817 other isoform, or with tags, fused parts or gaps R296A R296A): as the sequence (P56817 other isoform, or with tags, fused parts or gaps Y132A Y132A) above, with A111Y, R275A counted along it
T14 sequence (P56817 other isoform, or with tags, fused parts or gaps K382A K382A): as the sequence (P56817 other isoform, or with tags, fused parts or gaps Y132A Y132A) above, with A111Y, K361A counted along it
T8 sequence (P56817 other isoform, or with tags, fused parts or gaps K285A K285A): as the sequence (P56817 other isoform, or with tags, fused parts or gaps Y132A Y132A) above, with A111Y, K264A counted along it
T10 sequence (P56817 other isoform, or with tags, fused parts or gaps T133A T133A): as the sequence (P56817 other isoform, or with tags, fused parts or gaps Y132A Y132A) above, with A111Y, T112A counted along it
T1 sequence (P56817 other isoform, or with tags, fused parts or gaps L91A L91A): as the sequence (P56817 other isoform, or with tags, fused parts or gaps Y132A Y132A) above, with L70A, A111Y counted along it
T6 sequence (P56817 other isoform, or with tags, fused parts or gaps Q134A Q134A): as the sequence (P56817 other isoform, or with tags, fused parts or gaps Y132A Y132A) above, with A111Y, Q113A counted along it
T12 sequence (P56817 other isoform, or with tags, fused parts or gaps G291A G291A): as the sequence (P56817 other isoform, or with tags, fused parts or gaps Y132A Y132A) above, with A111Y, G270A counted along it
T13 sequence (P56817 other isoform, or with tags, fused parts or gaps I179A I179A): as the sequence (P56817 other isoform, or with tags, fused parts or gaps Y132A Y132A) above, with A111Y, I158A counted along it
T7 sequence (P56817 other isoform, or with tags, fused parts or gaps Q73A Q73A): as the sequence (P56817 other isoform, or with tags, fused parts or gaps Y132A Y132A) above, with Q52A, A111Y counted along it
T4 sequence (P56817 other isoform, or with tags, fused parts or gaps T390A T390A): as the sequence (P56817 other isoform, or with tags, fused parts or gaps Y132A Y132A) above, with A111Y, T369A counted along it
T9 sequence (P56817 other isoform, or with tags, fused parts or gaps I171A I171A): as the sequence (P56817 other isoform, or with tags, fused parts or gaps Y132A Y132A) above, with A111Y, I150A counted along it
T15 sequence (P56817 other isoform, or with tags, fused parts or gaps G72A G72A): as the sequence (P56817 other isoform, or with tags, fused parts or gaps Y132A Y132A) above, with G51A, A111Y counted along it
T11 sequence (P56817 other isoform, or with tags, fused parts or gaps N294A N294A): as the sequence (P56817 other isoform, or with tags, fused parts or gaps Y132A Y132A) above, with A111Y, N273A counted along it
T16 sequence (P56817 other isoform, or with tags, fused parts or gaps G74A G74A): as the sequence (P56817 other isoform, or with tags, fused parts or gaps Y132A Y132A) above, with G53A, A111Y counted along it
T5 sequence (P56817 other isoform, or with tags, fused parts or gaps D289A D289A): as the sequence (P56817 other isoform, or with tags, fused parts or gaps Y132A Y132A) above, with A111Y, D268A counted along it

Fold Decrease in Binding EC50 (Mut)/EC50 (WT) [1]: 1 fold
Fold Decrease in Binding EC50 (Mut)/EC50 (WT) [2]: 70.9 fold
Fold Decrease in Binding EC50 (Mut)/EC50 (WT) [3]: 72.2 fold
Fold Decrease in Binding EC50 (Mut)/EC50 (WT) [4]: 0.9 fold
Fold Decrease in Binding EC50 (Mut)/EC50 (WT) [5]: 2210 fold
Fold Decrease in Binding EC50 (Mut)/EC50 (WT) [6]: 1990 fold
Fold Decrease in Binding EC50 (Mut)/EC50 (WT) [7]: 1.7 fold
Fold Decrease in Binding EC50 (Mut)/EC50 (WT) [8]: 4 fold
Fold Decrease in Binding EC50 (Mut)/EC50 (WT) [9]: 1020 fold
Fold Decrease in Binding EC50 (Mut)/EC50 (WT) [10]: 1.1 fold
Fold Decrease in Binding EC50 (Mut)/EC50 (WT) [11]: 2.4 fold
Fold Decrease in Binding EC50 (Mut)/EC50 (WT) [12]: 0.8 fold
Fold Decrease in Binding EC50 (Mut)/EC50 (WT) [13]: 2.6 fold
Fold Decrease in Binding EC50 (Mut)/EC50 (WT) [14]: 4.5 fold
Fold Decrease in Binding EC50 (Mut)/EC50 (WT) [15]: 6.5 fold
Fold Decrease in Binding EC50 (Mut)/EC50 (WT) [16]: 488 fold
Fold Decrease in Binding EC50 (Mut)/EC50 (WT) [17]: 349 fold
Fold Decrease in Binding EC50 (Mut)/EC50 (WT) [18]: 1 fold
B1: biotinylated BACE020 (Ac-NEESMYCRLLGIGCG-(PEG)3-biotin) (peptide)
peptide: Ac-NEESMYCRLLGIGCG-{NH(CH2)3(OCH2CH2)2O(CH2)3NH-biotin}
modifications: disulfide 7-14
notes: also called C-terminal biotin tagged BACE020 peptide
